Results taken from patent US20210403579A1 (DELINIA, published 2021).

T1: Human ST2 (human, UniProt Q01638 19-328, limits assumed)
T1 construct: also called human ST2 protein; Interleukin 1 receptor-like 1
T1 sequence (looked up): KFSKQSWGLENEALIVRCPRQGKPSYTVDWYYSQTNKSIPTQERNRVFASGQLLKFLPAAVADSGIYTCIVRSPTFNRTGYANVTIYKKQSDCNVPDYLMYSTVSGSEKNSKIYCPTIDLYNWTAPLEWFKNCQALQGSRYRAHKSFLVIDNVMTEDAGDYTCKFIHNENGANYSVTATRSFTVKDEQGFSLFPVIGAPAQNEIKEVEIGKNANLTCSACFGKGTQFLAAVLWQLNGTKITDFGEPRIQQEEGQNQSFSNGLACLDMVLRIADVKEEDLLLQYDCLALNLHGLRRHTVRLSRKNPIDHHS

T2: Mouse ST2 (mouse, UniProt P14719 27-332, limits assumed)
T2 construct: also called mouse ST2 protein
T2 sequence (looked up): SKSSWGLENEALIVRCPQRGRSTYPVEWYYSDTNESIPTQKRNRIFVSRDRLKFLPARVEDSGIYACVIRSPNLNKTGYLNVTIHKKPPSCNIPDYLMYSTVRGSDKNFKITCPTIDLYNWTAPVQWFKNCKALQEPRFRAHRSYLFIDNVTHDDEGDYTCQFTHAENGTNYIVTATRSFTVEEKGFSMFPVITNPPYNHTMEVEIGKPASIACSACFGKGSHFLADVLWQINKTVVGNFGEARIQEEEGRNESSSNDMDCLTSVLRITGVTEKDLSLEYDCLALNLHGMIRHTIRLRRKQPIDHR


Assays:
[1] = target: T1, Human ST2; experiment: SPR (Carterra), antibody immobilized, ST2 analyte, 1:1
Protocol: (§1) Binding of the reformatted human ST2 antibodies to the human and mouse ST2 proteins was evaluated by surface plasmon resonance (SPR), using a high throughput antibody screening and characterization platform from Carterra (Salt Lake City, Utah).

[2] = target: T2, Mouse ST2; experiment: as above
Protocol: as §1

Row | Kd [1] | koff [1] | kon [1] | Kd [2] | koff [2] | kon [2] | Binder
1 | 465 nM | 0.062 s⁻¹ | 130000 M⁻¹ s⁻¹ | – | – | – | Human ST2 IgG1 Antibody 107 (antibody, V domains shown, IgG1, kappa) VH: QVQLVQSGAQVKKPGASVKVSCKASGGTFSSYTISWVRQAPGQGLEWMGVIYPSGDITVYAQEFQGRVTMTRDTSTSTVYMELSSLRSEDTAVYYCARAWARYFDYWGQGTLVTVSS VL: DIQMTQSPSSLSASVGDRVTITCQASQDISNYLNWYQQKPGKAPKLLIYDASNLQAGVPSRFSGSGSGTDFTLTISSLQPEDFATYYCQQSYSSPITFGQGTRLEIKR
2 | 10 nM | 0.0061 s⁻¹ | 600000 M⁻¹ s⁻¹ | 1.1 nM | 0.0013 s⁻¹ | 1.1e+06 M⁻¹ s⁻¹ | Human ST2 IgG1 Antibody 109 (antibody, V domains shown, IgG1, kappa) VH: QVQLVQSGAEVKKPGSSVKVSCKASGYRFTDYYIHWVRQAPGQGLEWMGIIQPTGGGTTYAQKFQGRVTITADESTSTAYMELSSLRSEDTAVYYCARVGATVTKNYYYYYGMDVWGQGTTVTVSS VL: not shown
3 | – | – | – | 507 nM | 0.098 s⁻¹ | 190000 M⁻¹ s⁻¹ | Human ST2 IgG1 Antibody 86 (antibody, V domains shown, IgG1, kappa; also called ST2 Antibody 86) VH: QVQLVQSGAEVKKPGSSVKVSCKASGGTFSNYAISWVRQAPGQGLEWMGGIIPIFGTANYAQKFQGRVTITADESTSTAYMELSSLRSEDTAVYYCAKDLGGWFNLFDPWGQGTLVTVSS VL: EIVMTQSPATLSVSPGERATLSCRASQGVSSYLAWYQQKPGQAPRLLIYGASTRATGIPARFSGSGSGTEFTLTISSLQSEDFAVYYCQQYRSFPLTFGGGTKVEIKR
4 | 590 nM | 0.11 s⁻¹ | 190000 M⁻¹ s⁻¹ | – | – | – | Human ST2 IgG1 Antibody 101 (antibody, V domains shown, IgG1, kappa; also called ST2 Antibody 101) VH: QVQLVQSGAEVKKPGASVKVSCKASGYTFSTYDINWVRQAPGQGLEWVGIISPSGGWTTYAQKFQGRVTMTRDTSTSTVYMELSSLRSEDTAVYYCARVNYDILTGQGRGYYFDYWGQGTLVTVSS VL: DIQMTQSPSSLSASVGDRVTITCQATQDIADYLNWYQQKPGKAPKLLIYKASSLESGVPSRFSGSGSGTDFTLTISSLQPEDFATYYCQQSYSTPTFGPGTKVDIKR
5 | – | – | – | 419 nM | 0.098 s⁻¹ | 230000 M⁻¹ s⁻¹ | Human ST2 IgG1 Antibody 99 (antibody, V domains shown, IgG1, kappa; also called ST2 Antibody 99) VH: EVQLLESGGGLVQPGGSLRLSCAASGFTFSDYYMNWVRQAPGKGLEWVSTISGFGESTFYADSVKGRFTISRDNSKNTLYLQMNSLRAEDTAVYYCARLGAARAFDIWGQGTTVTVSS VL: DIQMTQSPSSLSASVGDRVTITCRASQSIGSWMAWYQQKPGKAPKLLIYAASTLQSGVPSRFSGSGSGTDFTLTISSLQPEDFATYYCQQSYTTPITFGPGTKVDIKR
6 | 121 nM | 0.061 s⁻¹ | 510000 M⁻¹ s⁻¹ | 684 nM | 0.096 s⁻¹ | 140000 M⁻¹ s⁻¹ | Human ST2 IgG1 Antibody 104 (antibody, V domains shown, IgG1, kappa) VH: QVQLVQSGAEVKKPGSSVKVSCKASGYTFTNYAIIWVRQAPGQGLEWMGGIIPVFGTADYTQTFQGRVTITADESTSTAYMELSSLRSEDTAVYYCARVSTNYYDSSGYYAFDYWGQGTLVTVSS VL: DIQMTQSPSSLSASVGDRVTITCRASQSISSYLNWYQQKPGKAPKLLIYDASSLQSGVPSRFSGSGSGTDFTLTISSLQPEDFATYYCQQTYHTPWTFGQGTKVEIKR
7 | 28 nM | 0.0056 s⁻¹ | 200000 M⁻¹ s⁻¹ | – | – | – | Human ST2 IgG1 Antibody 108 (antibody, V domains shown, IgG1, kappa; also called ST2 Antibody 108) VH: QVQLVQSGAEVKKPGASVKVSCKASGNTFTAYYMHWVRQAPGQGLEWMGIINPSGGSTSYAQKFQGRVTMTRDTSTSTVYMELSSLRSEDTAVYYCARGVGATNYWGQGTLVTVSS VL: DIQMTQSPSSLSASVGDRVTITCRASQGISNNLNWYQQKPGKAPKLLIYAASSLQSGVPSRFSGSGSGTDFTLTISSLQPEDFATYYCQQGFNFPLTFGGGTKVEIKR
8 | – | – | – | 438 nM | 0.063 s⁻¹ | 140000 M⁻¹ s⁻¹ | Human ST2 IgG1 Antibody 83 (antibody, V domains shown, IgG1, kappa; also called ST2 Antibody 83) VH: EVQLLESGGGLVKPGGSLRLSCAASGFTFSSYWMSWVRQAPGKGLEWVSAIGTAGDTYYPGSVKGRFTISRDDSKNTLYLQMNSLKTEDTAVYYCAILRRDKVWPFDYWGQGTLVTVSS VL: DIQMTQSPSSLSASVGDRVTITCRASQSISSHLHWYQQKPGKAPKLLIYAASSLQSGVPSRFSGSGSGTDFTLTISSLQPEDFATYYCQQSYSSPVTFGGGTKVEIKR
9 | – | – | – | 975 nM | 0.12 s⁻¹ | 120000 M⁻¹ s⁻¹ | Human ST2 IgG1 Antibody 98 (antibody, V domains shown, IgG1, kappa; also called ST2 Antibody 98) VH: EVQLLESGGGLVKPGGSLRLSCAASGFTFSSYWMSWVRQAPGKGLEWVSAISGTAINTYYADSVKGRFTISRDDSKNTLYLQMNSLKTEDTAVYYCARVRRDSSGGGAFDIWGQGTMVTVSS VL: DIQMTQSPSSLSASVGDRVTITCRASQGISNNLNWYQQKPGKAPKLLIYAASSLQTGVPSRFSGSGSGTDFTLTISSLQPEDFATYYCQQSYSTPPTFGQGTKVEIKR
10 | – | – | – | 989 nM | 0.1 s⁻¹ | 100000 M⁻¹ s⁻¹ | Human ST2 IgG1 Antibody 89 (antibody, V domains shown, IgG1, kappa; also called ST2 Antibody 89) VH: EVQLLESGGGLVKPGGSLRLSCAASGFTFSSYWMSWVRQAPGKGLEWVSAISGTAINTYYADSVKGRFTISRDDSKNTLYLQMNSLKTEDTAVYYCARVRRDSSGGGAFDIWGQGTMVTVSS VL: DIQMTQSPSSLSASVGDRVTITCRASQGISNNLNWYQQKPGKAPKLLIYAASSLQTGVPSRFSGSGSGTDFTLTISSLQPEDFATYYCQQSYSTPPTFGQGTKVEIKR
11 | 256 nM | 0.095 s⁻¹ | 370000 M⁻¹ s⁻¹ | 172 nM | 0.07 s⁻¹ | 410000 M⁻¹ s⁻¹ | Human ST2 IgG1 Antibody 105 (antibody, V domains shown, IgG1, kappa) VH: EVQLLESGGGLVQPGGSLRLSCAASGFTFSSYAMHWVRQAPGKGLEWVAVMSYDGRHEYYADSVKGRFTISRDNSKNTLYLQMNSLRAEDTAVYYCASTDYDIGGYSLPLDYWGQGTLVTVSS VL: DIQMTQSPSSLSASVGDRVTITCRASQSVSSWLAWYQQKPGKAPKLLIYAASNLQSGVPSRFSGSGSGTDFTLTISSLQPEDFATYYCQQSYDVPWTFGQGTRLEIKR
12 | – | – | – | 744 nM | 0.13 s⁻¹ | 180000 M⁻¹ s⁻¹ | Human ST2 IgG1 Antibody 78 (antibody, V domains shown, IgG1, kappa; also called ST2 Antibody 78) VH: EVQLLESGGGLVQPGGSLRLSCAASDFNFKNAWMSWVRQAPGKGLEWVSAISGNGAGTYYADSVKGRFTISRDNSKNTLYLQMNSLRAEDTAVYYCARVGETGAFDIWGQGTTVTVSS VL: not shown
13 | 616 nM | 0.15 s⁻¹ | 240000 M⁻¹ s⁻¹ | – | – | – | Human ST2 IgG1 Antibody 106 (antibody, V domains shown, IgG1, kappa) VH: QVQLVQSGAEVKKPGSSVKVSCKASGYTFTDYYIHWVRQAPGQGLEWMGGIIPIYGTANYAQKFQGRVTITADESTSTAYMELSSLRSEDTAVYYCARTNWGMDVWGQGTTVTVSS VL: EIVMTQSPATLSVSPGERATLSCRASQGIPSNSLAWYQQKPGQAPRLLIYGTSARASGIPARFSGSGSGTEFTLTISSLQSEDFAVYYCQQYYSTPWTFGQGTKVEIKR
14 | 140 nM | 0.0063 s⁻¹ | 45000 M⁻¹ s⁻¹ | 211 nM | 0.0058 s⁻¹ | 27000 M⁻¹ s⁻¹ | Human ST2 IgG1 Antibody 103 (antibody, V domains shown, IgG1, kappa; also called ST2 Antibody 103) VH: QVQLVQSGAEVKKPGASVKVSCKASGYTFTSYYMHWVRQAPGQGLEWMGWMNPNSGNTGYAQKFQGRVTMTRDTSTSTVYMELSSLRSEDTAVYYCARETSFDYYYGMDVWGQGTTVTVSS VL: DIQMTQSPSSLSASVGDRVTITCRASQSISNWLAWYQQKPGKAPKLLIYDGSNLGTGVPSRFSGSGSGTDFTLTISSLQPEDFATYYCLQDFTYPLTFGGGTKVEIKR
15 | 270 nM | 0.065 s⁻¹ | 240000 M⁻¹ s⁻¹ | – | – | – | Human ST2 IgG1 Antibody 102 (antibody, V domains shown, IgG1, kappa) VH: QVQLVQSGAEVKKPGSSVKVSCKASGYIFTRYYVNWVRQAPGQGLEWMGGIIPMFGTSNYAQKFQGRVTITADESTSTAYMELSSLRSEDTAVYYCARSSGYDSFKIDYWGQGTLVTVSS VL: not shown
